Two substances from publication PMC3172256 can be followed below.

The test addresses CD16.7-PC1-WT (human) (UniProt P08637). The test can be described thus: co-IP.

“Rab11, human, endogenous (from UniProt P62491 1-216) (natural protein)” displayed a fold coprecipitation above the background of untransfected cell lysates of 1.3 fold. The same measure for “Rab8, human, endogenous (from UniProt P61006 1-207) (natural protein)”: 2 fold.
